Results on 17 sequences are retold here after the DeepSol protein solubility set.

This data set in a line: soluble on expression in E. coli; label from the status in PepcDB or PDB records.
“MGSDKIHHHHHHVSPRIVIVGAGPGGMATAIRLAGQGYQVEIFEAVDRPGGRMRGFSLGDYHFDTGPTILQVPRVYDELFSSAGLRFSDYVTLIRLDPNTRIRFWDGEYLDLTSNIAAFKAQLARFDPALPAEFERWYIEHIRKNVVGYEPYLGTPVRSPLVYLKPREIAAALAFRPWESLYDHFKRFFRDERVVYALSYQAKYLGMHPTACSSVFSLVTFLEFADGIWHPRGGFRALAAGLAKAATDLGVVIHYNSPVKQVLVEEGRACGVELVGGERIKADAVVVNADFGHALTHIIPPHARGTYTDQKLNSMEFSCSTFMLYLGVNRRWDHLPHHQLYLSANIRRNDPLWAKSAVLDEDDPSFYVCNPTIVDPTNAPPGHSTLFVLVPVPNLRYPVDWAAVEQRYRDLIIRQMAKLGFEDVERHIVVERRYTAETWRDEHHTYLGAVFNLIHSWSQLGPFRPHIRHNGARNLYWIGGAVHPGSGLMTILEAAKSAVHFIGEDLPLHQTTAVAH”: the “soluble on expression in E. coli” value is on record as “not soluble”.
Turning to “MGSDKIHHHHHHVSRSVSIYVCQSCGAQTRQFFGRCNNCGEWNSIIEEKINQKSDKSIYTKINSPKEKSPYRSELISQTKNQLIERISSGYKELDRVLGGGLVPGSLVLIGGDPGIGKSTLILQSATEMAHHKSVLYVAAEESAQQVKLRWNRIEDAESNLHLLAETDLEMVIKELDHLKPEVAVIDSIQALHDQSLSSSPGSVAQVRECSAALQQIAKRQNISLLIIGHVTKDGMLAGPKVLEHLVDAVLTFEGDRFASHRLLRGVKNRFGATSELGVFEMQADGLSEVPNPSELFLSKTSAPGISTIVTCEGTRPLAIDIQALLNPTSYASPRRTTTGIEINRLHQILAVLEKNMNLSLSRYDCYLAVAGGLEVEEPGADLGIAAAIVSSLKDIELEEGVVFIGEIGLAGQLRLVRQMQQRINEVIRLGYKTLIIPDGIDTSEFETNQKLKILKASNINQALIYALDNN”, the “soluble on expression in E. coli” value is given as “not soluble”.
With “MGSDKIHHHHHHVSSDQVAVAGNAERLFNGAWYNLFEYGTTYANIGYRALQCQDDMMASDVVSRPKYGFNSSYQFNDVAIPSDGRTSFAWYLIYKTIDNCNTAISIKGDSEELRQAQGQALALRAFCYLHLVQHYQFTYLKDKDAPCVPIYTEPTTSGTKPKGKSTVAQVYQQIFDDLNLAQDYLTNYVRKGDGQKFKPNTDVVNGLMARAYLLTGQWGEAAKAAEAARKGYSLMTTTAEYEGFNNISNKEWIWGSPQTLSQSDASYNFYYLDATYVGAYSSFMADPHLMDTFVKGDIRLPLFQWMREGYLGYKKFHMRSDDTADLVLMRSAEMYLIEAEAKVRDGVALDQAVAPLNTLRTARGVGNYDVTGKTKEQVIDEILMERRRELWGEGFGITDVLRNQKAVERMALSEDMQKTEVDCWQEGGSFAKRNPLGHWFLNFPDGKAFSANSSYYLYAIPEKEINANPNL” the entry was “not soluble”; with “MGSDKIHHHHHHVSYPANRTPDHLLESDRAAGFEISADFERFDQRNDIFTRAFWDERVKSKDTDAFFASYRMEAAPRRGDGFTQKDFALRNAAWLISDIVSERSAEEGLREGFQGAIRDDTPVAPDKADLGAPEAEAAEMKAVAKLFGADLVGITHFDARWHYSARPDVRTMEAVPNDLPEGLGQVIVMGHAMDADLVETYPSALAGAATGREYSHEAAIVMQVAAYVRNLGYRAVASMNDTALVIPYAIKAGLGEYGRNQMVLTPEFGPRVRFSKIFTDMPLAVDAPRAFGLKAYCEGCDVCAVACPVKALPFGAPEFGGKAPSALRGVKKWTSDAEACFGYWAKLRSDCAICMRVCPFTAPRAGWVDRLWYKLAVGVFGDTGRGIARKWAARRAKARVKPKDWWAALRS”, “not soluble”.
With “MGSDKIHHHHHHVVDSLQQWQEVEAVLADLSQASQEHHYRQTHRLVQDYLDRLQLSPREQQGLEPLLKSLERMQAKLEQQVLHIAVFGLVGRGKSSLLNALVGETVFETGAIHGVTTAIATAAWPLTTDEDGVQRLRWSGLGDVQVELIDTPGIDEIDGDQREALAKRVAQQADLILFVVSGDISQLEQDTLTVLHQAHKPLLLVLNKADQYSDRDREAIRNKLADERLRHLISIDEIVTVAAAPRQAEPEYDGDRLVGTKLVSLPPQVEPLRQRIITLLLHEGQSLLALNALLQMAMVDRQVVRRKLQSRDRQAEELIWRFAIAKGMAVAINPISFVDLLGGAAIDVALILQLSQLYDLPIGEGKAIALLRTIAVGMGSLGLGEGLVRVGLSALKGLMGVAAPVSGGLSLGVYVPVALTQAGIGGFATYAIGQVTKAYLANGADWGPEGAGLLTQQILDSLDEAAILQRLRGEIDRRLRLKQL” the entry was “not soluble”; with “MGSDKIHHHHHHVVDVAHAVKPMSVPQRIEQASRHDLLVLSSQSGPRQSAWSSLTSALGGQDIDDHAGMPCRRVMLMLAEHEAELLRRECQLIPIVGADAVAQSVTLTKKAVPGNWCAWGVLDRDAAQQHLDAKIVSMGARLRDEPAFGLMFSCLARGPHFYDGVDQDIALLKRYYPSMPVIGFYGNGEIAPLNGRNVLWQNSVVLGLFTAES”, “not soluble”; with “MGSDKIHHHHHHWQVTGSKTTLDGVEAARMSGIESYPLRLEPELVCEADDLDALLDVDALVITLPARRSGPGEDFYLQAMQELVDSALAYRIPRIIFTSSTSVYGDAQGVVKENTPRNPVTASGRTLKELEDWLHNLPGTSVDILRLAGLVGPGRHPGRFFAGKTAPDGQHGVNLVHLEDVVGAITLLLQAPKGGHIYNICAPAHPARNVFYPQMTRLLGMAPPHFRDAPDNGKGKIIDGSRICNELGFEYQYPDPLVMPME”, “not soluble”.
In the case of “MGSDKIHHHHHHYDLSDVNTDDAVMGESWVAPLGMGYVTSDDVVNVEKVPSIREVDGAYVMIYDGEMKIKGKSLRAASDKVEIASEDITTGDIDGLFDGDFVLALTNPHITLKSNVKNASLDCSLSIEAENTSKKEATSSDFTLSTVSPNIWIGPLDPKTDAFKFVKNEKLPGIVQIVPQKIHLSLSADSKQWTNAPADALSELRYAVELPLTPAPEFSAVSVERIEDAFDEDFVDYIFSDGSARIYGEVTNEMPFDMSIEMVIMDENNVPVDIQFPAQEVKGQSGEVIFEITKEDMPKMKDARHIDLNLHLTGRDQGEALKKGQKTTFNLKLKKEGGISI”, the “soluble on expression in E. coli” value is “not soluble”.
As to “MGSDKIHHHHHHYKKKFSGEILCAALWGVNLLIGTDSGLMLLDRSGQGKVYPLISRRRFDQMTVLEGQNILATISGRKRRIRVYYLSWLRQKILRTEGAGSANTTEKRNGWVNVGDLQGAIHFKIVRYERIKFLVVGLESSIEIYAWAPKPYHKFMSFKSFGSLSHVPLIVDLTVEDNARLKVLYGSTGGFHAIDLDSAAVYDIYTPAQSGQTTTPHCIVVLPNSNGMQLLLCYDNEGVYVNTYGRMTKNVVLQWGEMPSSVAYISTGQIMGWGNKAIEIRSVDTGHLDGVFMHKKAQKLKFLCERNDKVFFSSAKGGGSCQIYFMTLNKPGLTNW”, the “soluble on expression in E. coli” value is “not soluble”.
In the case of “MGSDKIHHHHHHYLNTLQRELENAGIESRLVRRFGYTQEAVDWADAVFSAGGDGTFLMASSRVRTKHKPVIGINTDPQGSEGYMCLMRKLPEENLAGALKKLFSGNFEWLNRQRIRITVTGDDGISDAIELHDQQLNRDPATTRWTDNPRSPAREIEECMSLSPPVKKRMISEAVEIPEVEKETVELPVLALNEVFIGESLSSRVSYYEIGINDAQMLKQKSSGITICTGTGSTSWNFNINKLTEQCVQDLMKIVAEHCNLPQIPHGDKNAVSEICTKFNQQLIFDPDRKQLAFSVRDPIFNATFPPTDPRGFADKICIKSRGYDAHLVIDGGISYRFNDGSEAVMEVRDEDTLRTVVFR”, the “soluble on expression in E. coli” value was “not soluble”.
With “MGSGESTTRRVSFGLDEDDRVRILRGVKLSEDVLQRMRNTNADPRPPANNKENQGHQTRTPSTSDAQAPKTQAKTTFPDSKEELKKRYEQQQAIIQEELARIARKEREAARQDISRAVQRERAQTRQESERAKQLGKQLDKKEAELKALEAFYQEQITQLEKKNEERFRMSAEQFHAAATRSEANIKARNVEPVCLNLQAQILNCYRENREQTLQCSDLAKEYMQCINAAKKNLLVNHG”, the “soluble on expression in E. coli” value is “not soluble”.
Under “MGSLVREWVGFQQFPAATQEKLIEFFGKLKQKDMNSMTVLVLGKGGVGKSSTVNSLIGEQVVRVSPFQAEGLRPVMVSRTMGGFTINIIDTPGLVEAGYVNHQALELIKGFLVNRTIDVLLYVDRLDVYAVDELDKQVVIAITQTFGKEIWCKTLLVLTHAQFSPPDELSYETFSSKRSDSLLKTIRAGSKMRKQEFEDSAIAVVYAENSGRCSKNDKDEKALPNGEAWIPNLVKAITDVATNQRKAIHVDAAALEHHHHHH” stands “soluble”.
With “MGSNGGGGGGGKQVLWEFHATGPRNISNPSWRDLIRSSWTDPNYRRIAVSCFVQAAYLLELDRQEKRNGESALAPNWWKPFKYKLVRPLIDSRDGSIYGVLLEWDQLAALSDLIVLRPNGAPKVVLAIRGTVLKQSTVVRDLEDDFRFFTMESLRGSVRFTGALEALKSAIDKRGSNNVCIAGHSLGAGFALQVGKTLAQDGIFVECHLFNPPSVSLGMGLRKLQEKAGKVLKRYVSGSSSNATELSHPTEDGGAASEIGEEKLIKEVKRWVPNLYINSCDYICCFYADRSGVATVTAEKHDGHSGTHSKLFVIAKGPKKFLEAHGLQQWWSDDYELQLAVHDSKLMYRHLKSLYVNES” the entry was “soluble”; with “MGSRENLYFQGLEHHHHHHHMGHETKAQLKDYVEVKIMKIKTTVAALSVLSVLSFGAFAADSIDAAQAQNREAIGTVSVSGVASSPMDMREMLNKKAEEKGATAYQITEARSGDTWHATAELYK”, “soluble”; with “MGSSHHHHHHGGTGENLYFQGGSGSSCRGIVVAGVTNQARTQMAEAFLRAFTGGRVFVCSGGVHHLGTVHPLAVVTMAEMGIDVSRQSSSSLAGVRRQRETYDVYVSVDAPYTERTSDRYQRRYTDTQAAQQSSMGAAGLSAPCASSTSDFCDPLLASATPAHWTVSQDTTDGRQSWTLWSPRNPAIYHERSTRKLQDHLYEGEPLFMRVRPHGLRKACRVQRRWEVPELTQRFALETEAEQKARFVQARDLLGSLALVLVRDLEREYGETMLDEAAVAAYEKVAATEC”, “not soluble”.
Under “MGSSHHHHHHGKTIFVIVPTNEEQVAFLEALAKQDELNFDWQNPPTEPGQPVVILIPSDMVEWFLEMLKAKGIPFTVYVEEGGSENLYFQGGGGGGLSLPAFSPHCHSLRLGFHVFRKQRARTKTAAVAEQRGLRWTHTTARTAKSGWPPRGHTDTHTHTHTHTHITWEYASSGMTLVFEARRLPFGSISEVYAASIQPIVALHALDKLPLWDRCMLVAVLPVVQQRHSASAAAAPPSTVVRPSLTRNDSDNADAAAASLSSATVRAANHEERVNASPELAGAPSLEDVALALTIVRALDELEVVYDSSISTRAELEQQQQQQPSLPAASLAEAPRRAFKQPKKTSEELLMEQLLQERFTDTAPYLLESSDEGGENSADAAVDVAMCFTVKGESLGIGSATIFGGHGYHP” stands “not soluble”; under “MGSSHHHHHHGKTIFVIVPTNEEQVAFLEALAKQDELNFDWQNPPTEPGQPVVILIPSDMVEWFLEMLKAKGIPFTVYVEEGGSENLYFQGGGGGGRAAGTGDFTAAQRTNTLAVLQAFGRAIPKLGEKWAGNDFCSWEAVLCNAPDVYVSGISPTYAGTLPEMPVNVDYRHVVIKQLDFSEMGPGLSGTLPASWHSMTSLESLSIEKCESISGSVPPEWGSMTSLSVLNLRGTGISGTLPPQWSGMSKARSLQLQDCDLSGSLPSSWSAIPMLASVSLKGNKFCGVCRTRGIRRLVLLWTSRTSTRAATAWLLRTAQRPPLSPPPRQRPPRTSLTFPLRRGPRLSRLPQPALRHRLNPQPPLRHRLNPRPLLPQQTRRLLHQRRSARWMGVRCARGTPLRGARGAVRTTS”, “not soluble”.
